For orientation: EC50 means the concentration that produces a half-maximal response.

T1: human PRTG polypeptide (human, UniProt Q2VWP7 36-952, limits assumed)
T1 construct: also called protogenin
T1 sequence (looked up): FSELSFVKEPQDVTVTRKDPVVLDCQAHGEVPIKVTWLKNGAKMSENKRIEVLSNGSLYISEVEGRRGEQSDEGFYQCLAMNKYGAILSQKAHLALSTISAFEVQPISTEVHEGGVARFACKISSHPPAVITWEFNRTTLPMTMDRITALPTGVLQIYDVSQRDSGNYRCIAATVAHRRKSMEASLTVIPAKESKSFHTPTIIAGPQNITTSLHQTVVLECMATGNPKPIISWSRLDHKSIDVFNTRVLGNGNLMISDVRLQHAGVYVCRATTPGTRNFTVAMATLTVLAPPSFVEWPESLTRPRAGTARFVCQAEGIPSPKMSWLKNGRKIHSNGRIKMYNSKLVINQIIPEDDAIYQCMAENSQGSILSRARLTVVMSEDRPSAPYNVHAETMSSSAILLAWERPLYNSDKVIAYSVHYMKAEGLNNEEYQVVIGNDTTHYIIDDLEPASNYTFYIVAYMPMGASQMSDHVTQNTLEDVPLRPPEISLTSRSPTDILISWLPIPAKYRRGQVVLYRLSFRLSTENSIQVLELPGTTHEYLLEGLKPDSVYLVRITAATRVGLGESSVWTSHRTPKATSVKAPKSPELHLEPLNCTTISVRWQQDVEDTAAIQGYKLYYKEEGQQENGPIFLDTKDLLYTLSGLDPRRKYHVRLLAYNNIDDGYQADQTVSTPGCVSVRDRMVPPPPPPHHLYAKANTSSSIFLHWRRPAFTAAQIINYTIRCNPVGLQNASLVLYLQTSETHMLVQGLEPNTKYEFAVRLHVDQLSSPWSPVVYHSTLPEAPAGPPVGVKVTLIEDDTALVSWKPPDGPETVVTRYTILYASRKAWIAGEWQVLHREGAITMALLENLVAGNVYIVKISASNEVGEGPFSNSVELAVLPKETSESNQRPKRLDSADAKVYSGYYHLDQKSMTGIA

B1: VH domain Clone #1 (other)
VH: EVQLVESGGGLVQPGGSLRLSCKASGFTVSSNYMHWVRQAPGKGLEWIGGINHSGRTNYKSSLKSRVTISRDNSKNTLYLQMNSLRAEDTAVYYCARLPPSRDGYNYADYWGQGTLVTVSS
notes: also called #1 (VH domain)
B2: VH domain Clone #7 (other)
VH: EVQLVESGGGLVQPGGSLRLSCAASGFTFSNAWMSWVRQAPGKGLEWIGRIYSSGSTNYNPSLKSRVTISRDNSKNTLYLQMNSLRAEDTALYYCASTYRSSSGEYFQHWGQGTLVTVSSS
notes: also called #7 (VH domain)
B3: VH domain Clone #8 (other)
VH: EVQLVESGGGLVQPGGSLRLSCKGSGFTFSNYWMHWVRQAPGKGLEWVSAISGSGGSTYYADSVKGRFTISRDNSKNTLYLQMNSLRAEDTATYYCATLCRGDSCYSPFDPWGQGTLVTVSSS
notes: also called #8 (VH domain)
B4: VH domain Clone #5 (other)
VH: EVQLVESGGGLVQPGGSLRLSCKGSGFNFGDYAMHWVRQAPGKALEWIGYIYNTGSTKYNPSLKSLVTISRDNSKNTLYLQMNSLRAEDTATYYCVSTVTNGVEYFQHWGQGTLVTVSS
notes: also called #5 (VH domain)
B5: VH domain Clone #6 (other)
VH: EVQLVESGGGLVQPGGSLRLSCAASGFTFSNYGMSWVRQAPGQRLEWIGWIDTKTGNPRYGQGFTGRFTISRDNSKNTLYLQMNSLRAEDTATYYCVSTVPNGVEYFQHWGQGTLVTVSS
notes: also called #6 (VH domain)
B6: VH domain Clone #4 (other)
VH: EVQLVESGGGLVQPGGSLRLSCAASGSAFGSHWMHWVRQAPGKGLEWVSSISSGGSSIYYADSVKGRFTISRDNSKNTLYLQMNSLRAEDTAVYYCARVRRDDDSNYRPFDVWGQGTMVTVSS
notes: also called #4 (VH domain)
B7: VH domain Clone #2 (other)
VH: EVQLVESGGGLVQPGGSLRLSCKGSGFTFSNFAMNWVRQAPGKGLEWVSAISGSGGSTYYADSVKGRFTISRDNSKNTLYLQMNSLRAEDTALYYCARGPDYYGSGSHGWFDPWGQGTLVTVSS
notes: also called #2 (VH domain)
B8: VH domain Clone #3 (other)
VH: EVQLVESGGGLVQPGGSLRLSCAASYFDFDSYEMSWVRQAPGKALEWLGRIYTSGTTNYNPSLKSRVTISRDNSKNTLYLQMNSLRAEDTATYYCAMTGPYYDSSGYYPARHAEYFQHWGQGTLVTVSS
notes: also called #3 (VH domain)

This assay has as its target T1, human PRTG polypeptide. Nature of the assay: ELISA and SPR (Blitz) as stated; which method gave the EC50 is not said. The procedure: Binding affinity and specificity to a human PRTG polypeptide were tested using an ELISA and SPR (Blitz). […] Clone #1 was determined to bind to the human PRTG fibronectin type-III 1 domain; clone #2 was determined to bind to the human PRTG fibronectin type-III 3 domain; and clones #3, #4, #5, #6, #7, and #8 were determined to bind to the human PRTG fibronectin type-III 5 domain. Clone #1 binding to the human PRTG fibronectin type-III 1 domain was determined by ELISA. Clone #2 binding was based on the panning being performed using a PRTG fibronectin type-III 3 domain; and clones #3, #4, #5, #6, #7, and #8 binding was based on the panning being performed using a PRTG fibronectin type-III 5 domain.
B1 registered an EC50 of 2.8 nM. B2 registered an EC50 of 0.29 nM. Consider B3, for which the response was half-maximal at 0.81 nM (EC50). This EC50 is about 2.8-fold higher than that of the molecule before. In turn, B4 had an EC50 of 1.35 nM. In turn, B5 returned a 50% effective concentration (EC50) of 6.25 nM. Against the preceding molecule, the EC50 is about 4.6-fold higher. The figure for B6 is 0.9 nM; for B7 it is 30 nM. Regarding B8, the EC50 was found to be 0.75 nM.
